Source: article PMC10045995

Tests used:
[1] = target: epidermal growth factor receptor (EGFR), expressed in sensor cells as fusion protein 1 (mNpu^N-EGFR) and fusion protein 2 (EGFR-Npu^C-rMTS-mCherry) (UniProt P00533)
[2] = target: epidermal growth factor receptor (EGFR), expressed in sensor cells as fusion protein 1 (mNpu^N-EGFR) and fusion protein 2 (EGFR-Npu^C-rMTS-mCherry) (UniProt P00533); remark: listed apart in the source

Row | co-localisation (Pearson's r) of mCherry with mitochondrial stain in EGF-treated sensor cells (agonist/antagonist screen; untreated control 0.1) [1] [Pearson's r] | co-localisation (Pearson's r) of mCherry with mitochondrial stain in sensor cells co-treated with EGF and Cetuximab (400 nM) (EGF alone 0.8) [1] [Pearson's r] | co-localisation (Pearson's r) of mCherry with mitochondrial stain in sensor cells treated with EGF 0.001-100 ng/mL for 1 h (untreated control 0.08) [2] [Pearson's r] | limit of detection (LOD) of EGF by the sensor cells (mCherry translocation to mitochondria) [2] [ng/mL] | co-localisation (Pearson's r) of mCherry with mitochondrial stain in sensor cells treated with TGF-α (100 ng/mL) (untreated control 0.1) [1] [Pearson's r] | Substance
1 | 0.8 | 0.1 | 0.87 | 0.1 |  | epidermal growth factor (EGF) (from UniProt P01133 971-1023) (ligand)
2 |  |  |  |  | 0.8 | transforming growth factor-α (TGF-α) (from UniProt P01135 40-89) (ligand)
